Assay results taken from publication PMC4838878 (2016).

T1: Olf domain of mouse Latrophilin3 (Lphn3^Olf) (mouse, UniProt Q80TS3-3 199-495)
T1 chain: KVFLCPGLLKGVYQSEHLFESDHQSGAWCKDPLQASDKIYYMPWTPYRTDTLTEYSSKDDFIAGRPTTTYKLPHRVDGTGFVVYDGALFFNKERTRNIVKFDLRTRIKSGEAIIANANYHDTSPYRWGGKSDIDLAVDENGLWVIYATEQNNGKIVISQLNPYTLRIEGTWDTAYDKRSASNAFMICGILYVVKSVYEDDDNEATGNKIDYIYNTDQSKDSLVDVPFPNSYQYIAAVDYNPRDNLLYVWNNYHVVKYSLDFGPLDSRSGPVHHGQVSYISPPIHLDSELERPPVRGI

B1: FLRT2^LRR+Lphn3^Lec–Olf (mixed in a 1:2 molar ratio) (complex)
chain 1: ACPSVCRCDRNFVYCNERSLTSVPLGIPEGVTVLYLHNNQINNAGFPAELHNVQSVHTVYLYGNQLDEFPMNLPKNVRVLHLQENNIQTISRAALAQLLKLEELHLDDNSISTVGVEDGAFREAISLKLLFLSKNHLSSVPVGLPVDLQELRVDENRIAVISDMAFQNLTSLERLIVDGNLLTNKGIAEGTFSHLTKLKEFSIVRNSLSHPPPDLPGTHLIRLYLQDNQINHIPLTAFANLRKLERLDISNNQLRMLTQGVFDHLSNLKQLTARNNPWFCDCSIKWVTEWLKYIPSSLNVRGFMCQGPEQVRGMAVRELNMNLLSCPT
chain 2: PIPMAVVRRELSCESYPIELRCPGTDVIMIESANYGRTDDKICDSDPAQMENIRCYLPDAYKIMSQRCNNRTQCAVVAGPDVFPDPCPGTYKYLEVQYECVPYKVEQKVFLCPGLLKGVYQSEHLFESDHQSGAWCKDPLQASDKIYYMPWTPYRTDTLTEYSSKDDFIAGRPTTTYKLPHRVDGTGFVVYDGALFFNKERTRNIVKFDLRTRIKSGEAIIANANYHDTSPYRWGGKSDIDLAVDENGLWVIYATEQNNGKIVISQLNPYTLRIEGTWDTAYDKRSASNAFMICGILYVVKSVYEDDDNEATGNKIDYIYNTDQSKDSLVDVPFPNSYQYIAAVDYNPRDNLLYVWNNYHVVKYSLDFGPLD
B2: rat Unc5D ectodomain (Unc5D^ecto), biotinylated at a C-terminal Avitag (domain or fragment)
chain: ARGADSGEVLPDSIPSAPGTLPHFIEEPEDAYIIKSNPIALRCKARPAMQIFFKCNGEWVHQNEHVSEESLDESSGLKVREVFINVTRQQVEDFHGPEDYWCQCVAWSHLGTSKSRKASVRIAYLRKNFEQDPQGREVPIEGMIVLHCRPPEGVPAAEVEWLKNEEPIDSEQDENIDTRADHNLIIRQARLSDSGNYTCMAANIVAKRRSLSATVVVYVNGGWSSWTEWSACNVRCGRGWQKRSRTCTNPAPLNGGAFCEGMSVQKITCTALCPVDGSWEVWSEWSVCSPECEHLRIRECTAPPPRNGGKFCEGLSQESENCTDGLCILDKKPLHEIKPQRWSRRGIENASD
modifications: biotin on the C-terminal Avitag (enzymatic)
B3: mouse FLRT2 ectodomain (FLRT2^ecto), ITC construct (domain or fragment)
chain: CPSVCRCDRNFVYCNERSLTSVPLGIPEGVTVLYLHNNQINNAGFPAELHNVQSVHTVYLYGNQLDEFPMNLPKNVRVLHLQENNIQTISRAALAQLLKLEELHLDDNSISTVGVEDGAFREAISLKLLFLSKNHLSSVPVGLPVDLQELRVDENRIAVISDMAFQNLTSLERLIVDGNLLTNKGIAEGTFSHLTKLKEFSIVRNSLSHPPPDLPGTHLIRLYLQDNQINHIPLTAFANLRKLERLDISNNQLRMLTQGVFDHLSNLKQLTARNNPWFCDCSIKWVTEWLKYIPSSLNVRGFMCQGPEQVRGMAVRELNMNLLSCPTTTPGLPVFTPAPSTVSPTTQSPTLSVPSPSRGSVPPAPTPSKLPTIPDWDGRERVTPPISERIQLSIHFVNDTSIQVSWLSLFTVMAYKLTWVKMGHSLVGGIVQERIVSGEKQHLSLVNLEPRSTYRICLVPLDAFNYRTVEDTICSEATTHASYLNNGSNTASSHEQTTSHSMGSPF
B4: FLRT2^ecto+Lphn3^Olf (kept together in the ITC cell) (complex)
chain 1: B3 chain
chain 2: T1 chain

Key:
[1] = molecular target: B2; test: SPR; apparent KD; FLRT2LRR mixed with Lphn3Lec-Olf
[2] = molecular target: FLRT2^LRR+Lphn3^Lec–Olf DDD mutant (mouse, UniProt Q8BLU0 35-362; Q80TS3-3 92-463, D397N | D399T, artificial N-linked glycan at position 397); test: SPR; apparent KD; FLRT2LRR mixed with Lphn3Lec-Olf DDD mutant
[3] = molecular target: T2, Unc5D ectodomain (Unc5D^ecto), ITC construct (human (methods; the results say rat), UniProt Q6UXZ4 32-383); test: ITC
[4] = molecular target: T1, Olf domain of mouse Latrophilin3 …; test: ITC
[5] = molecular target: T2, Unc5D ectodomain (Unc5D^ecto), ITC …; test: ITC; FLRT2ecto premixed 1:1 with Lphn3Olf

T2 sequence (Q6UXZ4 32-383): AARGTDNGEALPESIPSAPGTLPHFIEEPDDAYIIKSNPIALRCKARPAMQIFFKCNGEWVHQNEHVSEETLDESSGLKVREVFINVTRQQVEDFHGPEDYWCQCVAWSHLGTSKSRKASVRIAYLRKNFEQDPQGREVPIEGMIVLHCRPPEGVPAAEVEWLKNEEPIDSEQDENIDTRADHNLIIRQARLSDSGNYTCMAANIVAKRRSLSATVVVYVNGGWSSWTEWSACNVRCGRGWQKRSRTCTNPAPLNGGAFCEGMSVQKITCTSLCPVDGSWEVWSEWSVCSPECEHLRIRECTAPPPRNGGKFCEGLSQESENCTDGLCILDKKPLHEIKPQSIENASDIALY

Binder: B1
- Kd [1]: ~9 nM

Binder: B2
- Kd [2]: ~9 nM

Binder: B3
- Kd [3]: 2300 nM
- Kd [4]: 9.7 nM

Binder: B4
- Kd [5]: 106 nM
